Measured values as given in paper PMC2719695, “Structures of native human thymidine phosphorylase and in complex with 5-iodouracil” (Biochemical and Biophysical Research Communications, 2009).

Biological target: the molecule itself
Experiment: crystal structure; native hTP without ligand, space group P2(1), 0.1 M Na-acetate pH 5.2, 25% PEG 4000, 0.1 M ammonium acetate; 3.0 Å; four chains in the asymmetric unit

B1: Human thymidine phosphorylase (enzyme)
chain: APPAPGDFSGEGSQGLPDPSPEPKQLPELIRMKRDGGRLSEADIRGFVAAVVNGSAQGAQIGAMLMAIRLRGMDLEETSVLTQALAQSGQQLEWPEAWRQQLVDKHSTGGVGDKVSLVLAPALAACGCKVPMISGRGLGHTGGTLDKLESIPGFNVIQSPEQMQVLLDQAGCCIVGQSEQLVPADGILYAARDVTATVDSLPLITASILSKKLVEGLSALVVDVKFGGAAVFPNQEQARELAKTLVGVGASLGLRVAAALTAMDKPLGRCVGHALEVEEALLCMDGAGPPDLRDLVTTLGGALLWLSGHAGTQAQGAARVAAALDDGSALGRFERMLAAQGVDPGLARALCSGSPAERRQLLPRAREQEELLAPADGTVELVRALPLALVLHELGAGRSRAGEPLRLGVGAELLVDVGQRLRRGTPWLRVHRDGPALSGPQSRALQEALVLSDRAPFAAPSPFAELVLPPQQ
notes: Human thymidine phosphorylase (hTP, EC 2.4.2.4), cDNA clone from the Mammalian Gene Collection; residues 32-480 are seen in the crystals; Homodimer; the His tag is surmised from the Ni2+ column; Native crystal: residues 34-479 in all four copies (32, 33 and 480 in some chains); complex with 5-iodouracil: residues 35-480 in both chains; also called hTP; TP; source: E. coli …
  stoichiometry N: 2
